Data from patent publication US20040229298A1.
Values joined by “and” are separate entries in the source; they are usually repeats but may differ in a detail not shown here. Identical values can stand only once. Ends that are not written are not given here.

How the values were obtained:
Assay in all cases: G assay ELISA, 10 uM biotin peptide on anti-GST-captured GST-PDZ
[1] = molecular target: GST-AF6 PDZ domain 1 (human)
[2] = molecular target: GST-DLG1 PDZ domain 3 (human)
[3] = molecular target: GST-EBP50 PDZ domain 1, clone #167.2 (human)
[4] = molecular target: GST-ERBIN PDZ domain 1 (human)
[5] = molecular target: GST-FLJ00011 PDZ domain 1 (human)
[6] = molecular target: GST-FLJ11215 PDZ domain 1 (human)
[7] = molecular target: GST-FLJ12615 PDZ domain 1 (human)
[8] = molecular target: GST-GTPase PDZ domain 1 (human)
[9] = molecular target: GST-KIAA0147 PDZ domain 4 (human)
[10] = molecular target: GST-KIAA0380 PDZ domain 1, clone #25.6 (human)
[11] = molecular target: GST-KIAA0561 PDZ domain 1 (human)
[12] = molecular target: GST-KIAA0751 PDZ domain 1 (human)
[13] = molecular target: GST-KIAA1634 PDZ domain 5 (human)
[14] = molecular target: GST-KIAA1719 PDZ domain 3 (human)
[15] = molecular target: GST-MAGI 1 PDZ domain 3 (human)
[16] = molecular target: GST-MAGI 1 PDZ domain 4 (human)
[17] = molecular target: GST-NSP PDZ domain 1, clone #42.5 (human)
[18] = molecular target: GST-Numb BP PDZ domain 1 (human)
[19] = molecular target: GST-PAR3 PDZ domain 3, clone #182.1 (human)
[20] = molecular target: GST-SITAC-18 PDZ domain 1 (human)
[21] = molecular target: GST-Serine Protease PDZ domain 1 (human)
[22] = molecular target: GST-Shank 3 PDZ domain 1 (human)
[23] = molecular target: GST-Shroom PDZ domain 1 (human)
[24] = molecular target: GST-TIAM 2 PDZ domain 1 (human)
[25] = molecular target: GST-X-11 beta PDZ domain 2 (human)
[26] = molecular target: GST-ZO-1 PDZ domain 1 (human)
[27] = molecular target: GST-ZO-2 PDZ domain 2 (human)

B1: HPV16 E6 C-terminal PDZ ligand peptide (20 mer, biotinylated), P03126 139-158 (peptide)
peptide: WTGRCMSCCRSSRTRRETQL
modifications: not fully specified; cysteine pairing not given here
Q: Which Ave OD [1] does the source give for B1 here?
A: 0.444 A450 nm

Q: And the OD S/N (ratio to GST only well) [1]?
A: 1.8

Q: What about the Ave OD [2] of the same binder?
A: 0.398 A450 nm

Q: What about the OD S/N (ratio to GST only well) [2] of the same binder?
A: 2.45

Q: And the Ave OD [3]?
A: 0.381 A450 nm and 0.355 A450 nm

Q: What about the OD S/N (ratio to GST only well) [3] of the same binder?
A: 1.94 and 2.28

Q: And the Ave OD [4]?
A: 0.36 A450 nm and 0.342 A450 nm

Q: And the OD S/N (ratio to GST only well) [4]?
A: 1.82 and 1.3

Q: What about the Ave OD [5] of the same binder?
A: 0.423 A450 nm

Q: And the OD S/N (ratio to GST only well) [5]?
A: 2.9

Q: And the Ave OD [6]?
A: 0.449 A450 nm

Q: What about the OD S/N (ratio to GST only well) [6] of the same binder?
A: 2.77

Q: And the Ave OD [7]?
A: 0.461 A450 nm

Q: What about the OD S/N (ratio to GST only well) [7] of the same binder?
A: 2.24

Q: What about the Ave OD [8] of the same binder?
A: 0.35 A450 nm

Q: And the OD S/N (ratio to GST only well) [8]?
A: 1.12

Q: What about the Ave OD [9] of the same binder?
A: 0.38 A450 nm

Q: What about the OD S/N (ratio to GST only well) [9] of the same binder?
A: 2.34

Q: What about the Ave OD [10] of the same binder?
A: 0.376 A450 nm

Q: And the OD S/N (ratio to GST only well) [10]?
A: 1.95

Q: What about the Ave OD [11] of the same binder?
A: 0.347 A450 nm

Q: What about the OD S/N (ratio to GST only well) [11] of the same binder?
A: 2.44

Q: And the Ave OD [12]?
A: 0.451 A450 nm

Q: And the OD S/N (ratio to GST only well) [12]?
A: 2.1

Q: What about the Ave OD [13] of the same binder?
A: 0.403 A450 nm

Q: And the OD S/N (ratio to GST only well) [13]?
A: 2.07

Q: And the Ave OD [14]?
A: 0.346 A450 nm

Q: What about the OD S/N (ratio to GST only well) [14] of the same binder?
A: 1.65

Q: What about the Ave OD [15] of the same binder?
A: 0.354 A450 nm

Q: And the OD S/N (ratio to GST only well) [15]?
A: 1.46

Q: What about the Ave OD [16] of the same binder?
A: 0.395 A450 nm

Q: What about the OD S/N (ratio to GST only well) [16] of the same binder?
A: 1.2

Q: And the Ave OD [17]?
A: 0.416 A450 nm

Q: And the OD S/N (ratio to GST only well) [17]?
A: 1.95

Q: What about the Ave OD [18] of the same binder?
A: 0.352 A450 nm

Q: What about the OD S/N (ratio to GST only well) [18] of the same binder?
A: 3.17

Q: And the Ave OD [19]?
A: 0.445 A450 nm

Q: And the OD S/N (ratio to GST only well) [19]?
A: 2.07

Q: What about the Ave OD [20] of the same binder?
A: 0.398 A450 nm

Q: And the OD S/N (ratio to GST only well) [20]?
A: 1.63

Q: What about the Ave OD [21] of the same binder?
A: 0.343 A450 nm

Q: What about the OD S/N (ratio to GST only well) [21] of the same binder?
A: 1.55

Q: And the Ave OD [22]?
A: 0.396 A450 nm

Q: What about the OD S/N (ratio to GST only well) [22] of the same binder?
A: 2.61

Q: And the Ave OD [23]?
A: 0.361 A450 nm

Q: What about the OD S/N (ratio to GST only well) [23] of the same binder?
A: 3.25

Q: And the Ave OD [24]?
A: 0.356 A450 nm

Q: And the OD S/N (ratio to GST only well) [24]?
A: 2.05

Q: What about the Ave OD [25] of the same binder?
A: 0.431 A450 nm and 0.426 A450 nm

Q: What about the OD S/N (ratio to GST only well) [25] of the same binder?
A: 2.95 and 1.78

Q: And the Ave OD [26]?
A: 0.412 A450 nm

Q: And the OD S/N (ratio to GST only well) [26]?
A: 1.83

Q: What about the Ave OD [27] of the same binder?
A: 0.356 A450 nm

Q: And the OD S/N (ratio to GST only well) [27]?
A: 2.15
